Results published in the nanobody polyreactivity screen of Harvey et al. (2022).

Assay: yeast display, Sf9 membrane polyspecificity reagent, FACS + sequencing; frameworks hold sequencing errors
Procedure, shortened: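 Synthetic nanobody libraries on Saccharomyces cerevisiae BJ5465 were galactose-induced for 36–48 hours, stained 1 hour at 4 °C with 10% biotinylated, detergent-solubilized Sf9 membrane reagent and enriched on streptavidin microbeads. FACS then separated cells into low and high (top ~1%) gates by anti-HA (expression) and streptavidin (reagent binding) fluorescence. Genes were colony-PCR amplified, MiSeq 2 × 250 sequenced and CDR-length filtered. A clone's polyreactivity label is that of its gate of origin.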

Row | Sequence | polyreactivity (PSR sort gate)
1 | QVQLVESGGGIVQAGGSLRLSCAASGSTFQTYVMGWYRQAPGKERELVAAISSGGSTNYADSVKGRFTISRDNAKNTVYLQMNSLKPEDTAVYYCAKRWPYFRRGKDGYWGQGTQVTVSS | low polyreactivity
2 | QVQLVESGGGLVQAGGSLRLSCAASGRILPLYAMGWYRQAPGKERELVADITGSDGSTYYADSVKGRFTISRDNAKNTVYLQMNSLKPEDTAVYYCATDAIGRTPSDPWDYYYWGQGTQVTVSS | low polyreactivity
3 | QVQLVESGGGLVQAGGSLRLSCAASGRTFVVNAMGWYSPAPGKEREFVAGISVRGGITYYADSVKGRFTISRDNAKNTVYLQMNSLKPEDTAVYYCAAYILDYGGDQRIFDYWGQGTQVTVSS | low polyreactivity
4 | QVQLVESGGGLVQAGGSLRLSCAASGSTFSSYAMGWYRQAPGKERELVAAITSRGSRTFYADSVKGRFTISRDNAKNTVYLQMNSLKPEDTAVYYCAAYFRIGTFGQYDYWGQGTQVTVSS | high polyreactivity
5 | QVQLVESGGGLVQAGGSHRLICAASGFNFYIYAMGWYRQAPGKERELVAAISWNGGSTYYADSVKGRFTISRDIAKNTVYLQMNSLKPEDTAVYYCAARHYYFYYHGYVKYDYWGQGTQVTVSS | high polyreactivity
6 | QVQLVESGGGLVQAGGSLRLSCAASGSIYSYTMGWYRQAPGKEREFVAAITYSGDSTYYADSVKGRFTISRDNEKNTVYLQMNSLTPEDTAVYDCAAAGGRGSYYRLDYWGQGTQVTVSS | low polyreactivity
7 | QVQLVESGGGLVQAGGSLRLSCAASGLIFYRYAMGWYRQAPGKERELVAVITRSGGNTNYADSVKGRFTISRDNAKNTVYLQMNSLKPEDTAVYYCATRGIWKKVPYYYWGQGTQVTVSS | high polyreactivity
8 | QVQLVESGGGLVQAGGSLRLSCAASGIIFDDNTMGWYRQAPGKERELVAAISSSGGSTYYADSVKGRFTISRDNAKNTVYLQMNSLKPEDTAVYYCAAAVYYTYPYIVYRNYPEFDYWGQGTQVTVSS | low polyreactivity
9 | QVQLVESGGGLVQAGGSLRLICAASGITFTGYAMGWYTQAPGKERELVAVISETGGSTYADSVKGRFTISRDNAKNTVYLQMNSLKPEDTAVYYCAARLWWPYSTAWAKMDYWGQGTQVTVSS | low polyreactivity
10 | QVQLVESGGGLVQAGGSLRLSCAASGFTFQFYAMGWYRQAPGKERELVARISESGSRTYYADSVKGRFTISRDNAKNTVYLQMNSLKPEDTAVYYCAADNPYLGRKFDYWGQGTQVTVSS | high polyreactivity
11 | QVQLVESGGGLVQAGGSLRLSCAASGFIFWVYAMGWYIQAPGKERELVAAITSGGGSTYYADSVKGRFTISRDNAKNTVYIQMNSLKPDDTAVYYCATRIRTVAYNYWGQGTQVTVSS | high polyreactivity
12 | QVQLVESGGGLDQAGGSLRLICAASGRIFVYYTMVWYRQAPGKERELVAAITGSGGSTYYADSVKGRFTISRDNAKNTVYLQMNSLKPEDTAVYYCAVYDSYRSRTHRYPATFAYGSWGQGNQVTVSS | high polyreactivity
13 | QVQLVESGGGLVQAGGSLRLSCAASGRIFAGYAMGWYRQAPGKERELVAAITGTGDRTYYADSVKGRFTISRDNAKNTVYLQMNSLKPEDTAVYYCAAAYGAYYPWGYDYWGQGTQVTVSS | low polyreactivity
14 | QVQLVESGGGLVQAGGSLRLSCAASGRTFGYYAMGWYRQAPGKERELVAAISSAGSSTYYADSVKGRFTISRDNAKNTVYLQMNSLKPEDTAVYYCAASSRSFIRVYYWGQGTQVTVSS | high polyreactivity
15 | QVQLVESGGGLVQAGGSLRLSCAASGRIFSLYTMGWYRQAPGKERELVATISIGGSTNYADSVKGRFTISRDNAKNTVYLQMNSLKPEDTAVYYCATDGSIGYNDRYTNDFDYWGQGTQVTVSS | low polyreactivity
16 | QVQLVESGGGLVQAGGSLRLSCAASGSIFYSYAMGWDRQAPGKERELVAAISRIGGTTYYADSVKGRFTISRDNAKNTVYLQMNSLKPEDTAVYYCAAGPLLPRYSQYGYWGQGTQVTVSS | low polyreactivity
17 | QVQLVESGGGLVQAGGSLRLSCAASGFIFRQYAMGWYRQAPGKERELVAAISVGGGRTYYADSVKGRFTISRDNAKNTVYLQMNSLKPEVTAVYYCAASNWHSRGSGEYYWGQGTQVTVSS | high polyreactivity
18 | QVQLVETGGGIVQAGGRLRLSCAASGFTFYANTMGWYRQAPGKERELVATIRSTGSTKYADSVKGRFTISRDNAMNTVYLQMNSLNPEDTAVYYCAKRDRYYGVAVEGIRYDYWGQGTQVTVSS | high polyreactivity
19 | QVQLVESGVGLVHAGGSLRLSCAASGFIFVRYSIGWYRQAPGKEREFVASISWSGGSTYYADSVKGRFTISRDNAKNTVYLQMNSLKPEDTAVYYCAAYVRKDRSRGLYGYWGQGTQVTVSS | high polyreactivity
20 | QVQLVESGGGLVQAGGSLRLSCAASGSTFYPYVMGWYRQAPGKEREFVAAISKSGGSTYYADSVKGRFTISRDNAKNTVYLQMNSLKPEDTAVYYCNKKVASYYRSYYYWGQGTQVTVSS | high polyreactivity
21 | QVQLVESGGGLVQAGGSLRLSCAASGRIFGFYALGWYRQAPGKERELVAAITVSGSSTRYADSVKGRFTISRDNAKNTVYLQMNSLKPDDTAVYYCAASVGQFRYRYKWTFGNARMYYWGQGTQVTVSS | high polyreactivity
22 | QVQLVESGGGLVQAGGSLRLTCAASGSTFGDNAMGWYRQAPGKEREFVATISWDTGTTYYADSVKGRFTISRDNAKNTVYLHMNSLKQEDTAVYYCNVQSYAEFGYWGQGTQVTVSS | low polyreactivity

Row | Sequence | polyreactivity (PSR sort gate)
23 | QVQLVESGGGLVQAGGSLRLSCAASGLIFGTYAMGWYRQAPGKERELVAVISSSGGSTYYADSVKGRFTISRDNAKNTVYLQLNSLKPEDTAVYYCNARAFRQGHFEYDYWGQGTQVTVSS | low polyreactivity
24 | QVQLVESGGGLVQAGGSLRLSCAASGITFLTYTMGWYRQAPGKERELVAAISRSGGRTYYADSVKGRFTISRDNAKNTVYLQMNSLKPEDTAVYYCAAVSANQDFDYWGQGTQVTVSS | high polyreactivity
25 | QVQLVESGGGLVQAGGSLRLSCAASGSIFYPYVMGRYRQAPGKEREFVAAITTSGGTTYYADSVKGRFTISLDNAKNTVYLKMNSLKPEDTAVYDCAARGTVPGWAIYDYWGQGTEVTVSS | low polyreactivity
26 | QVQLVESGGGLVQAGGSLRLSCAASGRTFVGNTMGWYRQAPGKERELVAAISTGDGSTTYADSVKGRFTISRDNAKNTVYLQMNSLKPEDTAVYYCNVKYRASYRTDFEYWGLGTQVTVSS | low polyreactivity
27 | QVQLVESGGGLVQAGGSLRLSCAASGSIFNLYTMGWYRQAPGKEMELVAVITGGGSTYYADSVKGRFTISRDNAKNTVYLQMNSLKPADTAVYYCAAKGPFYKSSRTGDYWGQGTQVTVSS | low polyreactivity
28 | QVQLVESGGGLVQAGGSLRLSCAASGRIFYYYTMGWYRQAPGKERELVAAITSNGGSTYYADSVKGRFTISRDNAKNTVYLQMNSLKPEDTAVYYCAADSYSYRYYYWGQGTQVTVSS | high polyreactivity
29 | QVQLVESGGGLVQAGGSLRLSCAASGSTFRYYAMGWYRQAPGKERELVAVIRNSGGSTYYADSVKGRFTISRDNAKNTVYLQKNSLKREDTAVYYCAARLYTFHRDYWGQGTQVTVSS | low polyreactivity
30 | QVQLVESGGGLVQAGGSLRLSCAASGFIFSTYAMGWYRQAPGKERELVASTSRRAGRTYYADSVKGRFTISRDNAKNTVYLQMNSLKPEDTAVYYCAAEARVGYHFQILDYWGQGTQVTVSS | high polyreactivity
31 | QVQLVESGGGLVQAGGSLRLSCAASGRIFAYYAMGWYRQAPGKERELVADITRSGARTYYADSVKGRFTISRDNANNTVYLQMNSLTPEDTAVYYCAAEGVRIGTRYDYWGQGTQVTVSS | high polyreactivity
32 | QVQLVESGGGLVQAGGSLRLSCAASGSTFDIYAMGWYRQAPGKERELVAAITGSSGSTYYADSVKGRFTISRDNAKNTVYLQMNSLKPEDTAVYYCAADIVRVSTVPSLVYSYYWGQGTQVTVSS | low polyreactivity
33 | QVQLVEAGGGLVQAGGSLRFSCAASGSLFRWYAMGWYRQAPGKERELVAAINRGGDSTYYADSVKGRFTISRDNAKNTVYLQMNSLKPEDTAVYYCNAVSSWKLLYSSYDSWGQGTQVTVSS | high polyreactivity
34 | QVQLVESGGGIVQAGGSLRLSCAASGRTFSWNTMGWYRQAPGKERELVAAITRVGTTYYADSVKGRFTISRDNAKNTVYLQMNSLKPEDTAVYYCAVKGPRWAYPGVDYWGQGTQVTVSS | high polyreactivity
35 | QVQLVESGGGLVQAGGSLRLSCAASGSIFASNAMGWYRQAPGKEREFVAAIYWSGTRTYYADSVKGRFTISRDNAKNTVYLQLKSLKPEDTAVYYCAALTVLRNDYWGQGTQVSVSS | low polyreactivity
36 | QVQLVESGGGLVQAGGSLRLSCAASGRIFVGYAMGWFRQAPGKERELVAAINRSGSSTYYADSVNGRFTISRDNAKNTVYLQMNSLKPEDTAVYYCAARYYPRVRYATYYGSYYWGQGTQVTVSS | high polyreactivity
37 | QVQLVESGGGLVQAGGSLRLRCAASVRTFYTYAMGWYRQAPGKERELVAAISKRGTSTYYADSVKGRFTISRDNAKNTDYFQMNSLKPQDTAVYYCAAAVYQRARYYWGQGTQVTVSS | high polyreactivity
38 | QVQLVESGGGLVQEGGSLHLICAASGRIFGKYPMGWYRQAPGKEREFVAAIRSSDGNTYYADSVKGRFTISRDNAKNTVYLQMNSLKPDDTAVYYCNAGRVTRRDTFDYWGQGTQVTVSS | high polyreactivity
39 | QVQLVESGGGLVQAGGSLRLICAASGSIFFWYTMGWYRQAPGKERELVATITGSGSSTTYADSVKGRFTISRDNAKYTVYLQMNSLKPEDTAVYYCAAADIIDHSFPYDYWGQGTQVTVSS | low polyreactivity
40 | QVQLVESGGGLVQAGGSLRLSCAASGRTFYVNAMGWYRQAPGKEMELVAAITNGGRTNYADSVKGRFTISRDNAKNTVYLQMNSLKPEDTAVYYCNKVSLRTQSAQFHYWGQGTQVTVSS | high polyreactivity
41 | QVQLVESVGGLVQAGGSLRLSCAASGFTIGYNFMGWYRQAPGKERELVATISWNGARTYYADSVKGRFTISRDNAKNTVYLQMNSLKPEDTAVYYCAARRYYRGEYDYWGQGTQVTVSS | low polyreactivity
42 | QVQLVESGGGLVQAGGSLRLSCAASGSIFTPYAMGWYRQAPGKERELVATISARGGSTYYADSVKGRFTISRDNAKNTVYLQMNSLKPEDTAVYYCNVDYAQRVFLYDYWGQGTQVTVSS | low polyreactivity
43 | QVQLEESGGGLVQAGGSLRLSCAASGRTFVWYAMGWYRQAPGKERELVAAISRSGGSTYYADSVKGRFTISRDNAKNTVYLQMNSLKPEDTAVYYCAAEFYIAPPYDYWGQGTQVTVSS | high polyreactivity
